Measured values as given in article PMC12412652.

Key:
[1] = target: MBP-BAX 1-166 C62S C126S, biotinylated (Avi tag, 6-histidine tag) (human), Q07812; assay: BLI; Octet RED96; biotinylated BCL-2 family proteins (25 nM) immobilised on streptavidin biosensors, designed protein in solution; 10 mM Hepes pH 7.4, 150 mM NaCl, 3 mM EDTA, 0.05% surfactant P20, 0.5% nonfat dry milk; titrations in triplicate, 1:1 binding model
[2] = target: T1, MBP-BAK 16-186, biotinylated (Avi tag, 6-histidine tag) (human), Q16611; assay: as above
T1 chain: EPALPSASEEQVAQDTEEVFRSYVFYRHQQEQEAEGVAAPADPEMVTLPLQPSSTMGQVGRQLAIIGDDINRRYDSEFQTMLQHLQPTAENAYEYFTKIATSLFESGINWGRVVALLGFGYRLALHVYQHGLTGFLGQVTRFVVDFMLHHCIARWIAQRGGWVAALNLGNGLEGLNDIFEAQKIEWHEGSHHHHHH

Sequence of MBP-BAX 1-166 C62S C126S, biotinylated (Avi tag, 6-histidine tag) (human), Q07812 (Q07812 1-166 C62S/C126S): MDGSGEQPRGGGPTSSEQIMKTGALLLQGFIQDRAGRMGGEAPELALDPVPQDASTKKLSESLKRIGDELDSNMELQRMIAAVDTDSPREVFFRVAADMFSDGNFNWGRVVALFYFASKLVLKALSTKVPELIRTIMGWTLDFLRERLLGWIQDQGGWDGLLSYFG

With SESQEDIIRNIARHLAQVGDSMDRSIPPGLVNGL (domain or fragment, modifications not checked) [MBP-fused BH3 peptide from BID] the Kd [1] was 464 nM and the Kd [2] was over 4000 nM.
